Experimental findings from the supplement of paper PMC12042874 are described below.

± gives the uncertainty stated by the source.

This data set is described as follows: amyloid nucleation score (Sup35N fusion, yeast selection) (log enrichment); library NNK2; higher = more nucleation; inactive = no reads after selection. In short, it runs like this: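 Random libraries were run with three technical output replicates. In each, psi-negative yeast expressing Sup35N fused to peptides of 20 random codons were induced 24 hours with 100 μM copper sulfate and grown 7 days at 30°C on medium lacking adenine and uracil, and input and output plasmid inserts were Illumina-sequenced. The nucleation score is the DiMSum log enrichment of output over input reads, centred on the mode score of non-aggregating sequences, and sequences under 100 input reads were excluded.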
For RDRFS, the amyloid nucleation score is 0.248 ± 0.61.

For AYRQMYTGNVR, the amyloid nucleation score was determined as 3.97 ± 0.067. Then FSSSI, with “inactive”; and SIELNLPMFSIRVKMCSRGE, with 2.53 ± 0.15; and VEGLQ, with “inactive”. Then WCLLAIFSYCNDPLVLIARR, with 2.26 ± 0.12.

In turn, FSFLKLIADPATLVIGTDSW yielded an amyloid nucleation score of -0.492 ± 0.3. Then QSRSMNRHNWHTFMLWAWER, with -0.695 ± 0.61; and CNSDGWCRIGSAVLPVRSID, with -0.441 ± 0.35. As to YYQSIGLQYSRMKMGCKRND, the amyloid nucleation score was 0.882 ± 0.18. For VEADVYDRDVTSWRMLYLYK the value was 0.174 ± 0.4.

The substance AWSLFYRLLPPWNE came in with an amyloid nucleation score of -0.656 ± 1.1. TPDVLGLRHYRLTIVTYH came in with an amyloid nucleation score of 1.22 ± 0.31. As to ECLTG, the amyloid nucleation score is -1.04 ± 0.44. For TSRML the value was 0.67 ± 0.39; for WNYITVDISQLNLPGVAMGW, 3.45 ± 0.097; for APFLGRLEVRV, 0.563 ± 0.37. Then NYVCSWMLRFSVGRSQIPAV, with -0.924 ± 0.76.

Regarding NNTNIECSWWIYVWSRHNNR, the amyloid nucleation score was found to be 5.99 ± 0.061. Then LHYTYVSDCVCRMDTLLFGL, with -0.278 ± 0.45; and TRAFLIIRYVKLDTNFVI, with 2.19 ± 0.064; and AAAYCYRTEEW, with 1.6 ± 0.22. Then YNIHYMNVLIGALHL, with 8.327 ± 0.056.

STRTSADRSFIIMVWCNIDL: the amyloid nucleation score stood at 3.62 ± 0.081. Then QKMLLKIWIVDRNTYSAVLN, with -0.425 ± 0.74; and ISFYYWLARPCLFVSKIEGA, with 3.54 ± 0.062; and NWVLVVGSSWEFLSGSASGG, with 2.18 ± 0.17. For RTHCSMSYQSRVVVDWLLQK the value was 4.18 ± 0.087; for YPKFYIWYYVYRLLALTCVY, -1.03 ± 0.37. Then RSKSCSVVVRL, with 0.813 ± 0.43; and YNSVFLRNLRSVGWTKAPLW, with -0.387 ± 0.76; and MVSVKSCYYVSVSVLSRFHF, with 0.065 ± 0.36. With RNSPVSLDVVSI, the amyloid nucleation score came out at 0.046 ± 0.49. For TLLFHTRSYVYICVLVWKQH the value was 0.049 ± 0.8.

Take GFPVWVYYKMDLYCLSVKGI: the amyloid nucleation score is -0.672 ± 0.61. For PGYPVTFLRRDAYAVREFEF the value was -0.1 ± 1; for MNFESNFRNTKCEIFIVIYN, 4.62 ± 0.11; for LGYIWLALRIVNCLDNGVPY, -1 ± 0.44.

The substance RRISSKECLYRWGALWYIEI showed an amyloid nucleation score of 0.086 ± 0.61. With EIWMSLSLNAEISYVYYSQS, the amyloid nucleation score is -0.658 ± 0.28. For SLCLGHYFHGTAYNWVVLYI the value was 0.213 ± 0.8. For PVWGSTCWFDVTWVRFKLFW the value was 2.61 ± 0.11; for AWNLFLFQSRL, 4.7 ± 0.073; for LESMFNVL, -0.44 ± 0.56.

The substance SYNTHQLSRSPF showed an amyloid nucleation score of -0.131 ± 0.23. For MAFVDISSANFRKITRDLLP the value was 0.82 ± 0.19; for VNTSFATFSSVSLEGLLSMV, -0.595 ± 0.3; for DACAFVCLYWNVLTRFELMP, -0.458 ± 0.32. In turn, WNYSNRNDYELFRTLK had an amyloid nucleation score of 0.316 ± 0.57.

The substance NYSRL gave an amyloid nucleation score of -0.099 ± 0.26. In turn, NPYKLTLPLTSLLLYSIPRA came in with an amyloid nucleation score of -0.127 ± 1.1. For TPNNYLYTSFVAY the value was “inactive”; for DLFLRYY, “inactive”. For SCLLSL the value was 0.506 ± 0.45. Then SNFCFSTR, with 0.328 ± 0.32. For YSVGCCLRYYRSN, the amyloid nucleation score stood at 0.661 ± 0.8. For RYIIL the value was 0.728 ± 0.62. For QRVMHTYYVS the value was 0.073 ± 0.24. For SFLKSMMAPIYKCSVWCSML the value was -0.819 ± 0.64; for GHLNFS, -0.166 ± 1.1; for NYLTQCSRSFNFARVDF, -0.003 ± 0.56. In the case of HLYCRALILLVVLPGYTQLL, the amyloid nucleation score is -1.07 ± 0.78. For PSFMLHTCLFSHGYYILCTG the value was 0.005 ± 0.3; for YIFLIMCRWYSATLIRKTSC, -0.584 ± 0.76. Then SVFGTLFDYGRRSTTFNGLK, with “inactive”; and STNEWF, with -1.06 ± 0.62. As for RFEMRSGLKDKLDKVGS, the amyloid nucleation score result was “inactive”.

On to SDMYM, for which the amyloid nucleation score is -0.324 ± 1.1.

Substance RLSWLLLKFNDQVWRLIGAG yielded an amyloid nucleation score of 4.04 ± 0.054. For the substance DPGSRDMIG, the amyloid nucleation score is 0.043 ± 1. FWGGKNYI yielded an amyloid nucleation score of -1.5 ± 0.75. Then YYFFCVNGGHDMGAILNMLW, with 6.94 ± 0.086; and TYDWEFFNDYYQM, with 0.161 ± 0.77.

The substance TISLDM registered an amyloid nucleation score of -0.033 ± 0.25.

Consider PGCHWISASCGDVLDKGNTG, for which the amyloid nucleation score is 0.501 ± 0.62. For TRYMFMVTKLPGPGGCSVNE the value was “inactive”. Then LVGDLVVGYGMCRKGVVR, with 5.03 ± 0.079; and FSRCTSVEV, with -0.699 ± 1. For FIFKGNQWKVFVFL the value was 2.83 ± 0.068; for MRTIGGD, 0.348 ± 0.38; for YGHLRVWKIPS, 0.655 ± 0.65. On to DVKSAWRLGVGCLTVRAIRE, for which the amyloid nucleation score worked out at 0.233 ± 0.49. Then RTSRVVIKILDPFQFVMLFI, with -0.211 ± 0.49; and VPWSLGLCSIFRSFK, with 2.38 ± 0.16.

In the case of VGNLRGYVKLVISFSVLRHK, the amyloid nucleation score entry was “inactive”. On to PHCCCRTSHLSPLNQRDKGS, for which the amyloid nucleation score was determined as 0.11 ± 0.77. Then VWYYGSRKCHAVYLRNRMSV, with -0.192 ± 0.41; and SYILEFFHWIRSRLEYYGY, with -1.5 ± 0.76; and QGLMIVINGSSYYVYVCLKG, with 1.09 ± 0.12. Consider TRALDPVSVSRISVRQQPLA, for which the amyloid nucleation score came to 1.12 ± 0.2.

For MKSSPA, the amyloid nucleation score is -0.395 ± 0.32.

On to SYSYFLELVSYKFSVVFLSI, for which the amyloid nucleation score worked out at 0.715 ± 0.58. NWVMVLGLGVCKSIWLLPMV displayed an amyloid nucleation score of -0.572 ± 0.76.

Regarding QHSLAMSSHKLSTTVEESWP, the amyloid nucleation score is 0.818 ± 0.45.

Consider VTDCMSVRITLLMCSHGFKH, for which the amyloid nucleation score was 7.302 ± 0.063. In turn, NWQVPKVFQVLNYA gave an amyloid nucleation score of 0.054 ± 0.79.

In the case of MLKMS, the amyloid nucleation score came out at 1.85 ± 0.15. For the substance YNVDVFWYGLKFNDLVVVHF, the amyloid nucleation score was determined as 3.73 ± 0.13.

WCSSKSLADSGRVMGANVYI registered an amyloid nucleation score of -1.02 ± 0.78. For YFELNLNVKRRGGKWYYSLI the value was 1.16 ± 0.27; for MSQFGHVCSRAYFLRDDQAN, “inactive”. Then LLLASAMWYGKLIRMRLLG, with 0.659 ± 0.48; and RQANFAQDPTSIVPVYMYLR, with 2.35 ± 0.074; and QNEVSLEVVFVKEGVGFDRL, with -0.665 ± 0.76. Take GTSRLNVEGGLYCRGSIVDV: the amyloid nucleation score is -0.299 ± 0.37.
